{"source": "paper PMC6535718", "about": "(Journal of the American Chemical Society, 2019)", "origin": "cited, not measured here", "molecules": {"B1": {"name": "Bfd: bacterioferritin-associated ferredoxin, cognate partner of BfrB in P. aeruginosa (protein, UniProt Q9HY80 1-73, looked up)", "Bacterioferritin-associated …": "MYVCLCQGVTDNQIRDAIYEGCCSYREVREATGVGTQCGKCACLAKQVVRETLNDLQSAQPVPAFGTTAFVAA"}}, "target": "BfrB", "settings": "read-out: Kd of Bfd binding to BfrB; complex in solution", "data": [{"molecule": "B1", "values": [{"measurement": "Kd", "result": "~3000", "unit": "nM"}]}]}
